Reference: patent publication US20200308295A1 (published 2020)

Molecular target: T1, recombinant human C3d (human, UniProt P01024 996-1303, limits assumed)
T1 construct: domain: C3d; Also used for statements that speak only of C3d or human C3d; also called wild-type C3d
Test: radiolabelled antibody; method and antigen not stated

T1 sequence (P01024 996-1303 limits assumed): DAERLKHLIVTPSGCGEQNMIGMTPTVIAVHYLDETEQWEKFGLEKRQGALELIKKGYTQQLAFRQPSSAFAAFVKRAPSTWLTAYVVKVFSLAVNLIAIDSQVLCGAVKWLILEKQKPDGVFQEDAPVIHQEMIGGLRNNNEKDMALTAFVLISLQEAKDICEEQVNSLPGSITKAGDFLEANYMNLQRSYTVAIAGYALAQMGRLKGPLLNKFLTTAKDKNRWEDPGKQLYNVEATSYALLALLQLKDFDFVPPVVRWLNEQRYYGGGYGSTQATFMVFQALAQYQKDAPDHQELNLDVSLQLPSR

Kd: 0.43 nM
B1: mouse monoclonal antibody 3d29 (antibody, mouse IgG2a, V domains shown)
VH: EVQLQQSGPVLVKPGASVKMSCKASGYTFTDYYMNWVKQSHGKSLEWIGVINPYNGGTSYNQKFKGKATLTVDKSSRTAYMELNSLTSEDSAVYYCSRGGPYWGQGTTLTVSS
VL: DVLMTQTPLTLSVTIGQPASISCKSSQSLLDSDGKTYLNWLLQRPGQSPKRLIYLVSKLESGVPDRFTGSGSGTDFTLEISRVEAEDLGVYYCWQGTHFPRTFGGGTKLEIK
notes: Group I clone; Also used FITC-labelled, biotinylated, radiolabelled and conjugated to SPIO nanoparticles; told under assay; also called clone 29; C3d29
